assay: soluble on expression in E. coli; label from the status in PepcDB or PDB records

Sequence | soluble on expression in E. coli
MTIAQQERPVAASPYRFEAEMTSGLERVAAHHHDLTLTSVFQPIFSLSHMRAVGYEALLRAHDALDRPVSPLDVFGEAARHGEAAQVDRLAQALHLENFARFGAEREWLFLNVHPGVLTDPFQAAALFANLKRLEIPPRRIVLEVLEQRADDIERLADAVREFREQGFLIALDDFGAGHSNIERIWQLNPDIVKLDRIMLSHAQHRAGLTAILHGLVTLLHEAGKLVLIEGIETEHEAQIALACDADFVQGHFFGRPAPGLPDGAAASACIGELTERYRQQAEASERRDAQRLAPYQRAFERAAERLAAGEPLDEVCWNFLALDHAARCFLLDERGRQAGRNVVRRADRARHETRFLPLADAQGANWLRRPYFRSAIAAPGRVQATRPYLSINEALPCVTLSIAVRVHDALCVLCGDIDWIDDEASMSA | soluble
SLGSDADSAGSLIQPMQIPGIIMPGLRRLTIRDLLAQGRTSSNALEYVREEVFTNNADVVAEKALKPESDITFSKQTANVKTIAHWVQASRQVMDDAPMLQSYINNRLMYGLALKEEGQLLNGDGTGDNLEGLNKVATAYDTSLNATGDTRADIIAHAIYQVTESEFSASGIVLNPRDWHNIALLKDNEGRYIFGGPQAFTSNIMWGLPVVPTKAQAAGTFTVGGFDMASQVWDRMDATVEVSREDRDNFVKNMLTILCEERLALAHYRPTAIIKGTFSSGS | soluble
MGSDKIHHHHHHMYVAVKGGEKAIRAAHALQEQKRRGDGRLPELSVEQIGDQLSLAVDRVMTEGGIADRELAALALKQASGDNIEAIFLLRAYRTTLPRLAVSEPINTAEMRLERRISAVYKDIPGGQLLGPTYDYTHRLLDFTLLANGEAPSVQQADGEAEPTPHVFSLLTQQGLAKTEEDRGTPPDDITRTPPVYPCSRSSRLQQLMRGDEGYLLALAYSTQRGYGRNHPFAGEIRSGYVQVEIVPEELGFSVNIGELLLTECEMVNGFVAPQEEPPHFTRGYGLTFGMSERKAMAMALVDRALQAPDYDEEIAGPAQDEEFVLAHADNVEAAGFVSHLKLPHYVDFQAELALLKRLQRENERG | not soluble
MIIMEKGVVSDSYEVAIARNPHLAEYLSKYRNETGRSPSFLVNIDSSLKSLAHVDVIYPVGDPIFIHIYERGKERRYKPIEPLLKDDEFEFMDAILDIIMSRASDYPPAENEEEQEKNIEDVYKKTVSVGSNKIKRNSVTLEKPLYDKMLYNVKKEIIGLGPLEPLIRDSHIEDISGIGPEDVYIVHKIFGSMPTDITFGSMERLMRFSKRLSERVGRPVSDKRPIVDATLPDGSRLSIVYSTDISQRGPSFTIRKFSEIPLSILNLIKYNTMSYEEAAYLWLALEYGQSVFVCGETASGKTTVVNAIIPFIRPESKIFSAEDTPEIRAPQKAWQQLVTRESGAEESRVTLYDLLRTALRSRPNYIIVGEIRGAEGAMAFQAMQTGHPVISTFHASSVKKMIQRFTGNPINIPVTFMDNLNIVLIQQAVYVGGKFLRRTTSINEIEGYYEDLGGVATRAVFEWDPSTDRHMFRGMNNSYILEEKIAKTAGLVDTSLIYNELFRRARILKDLADQKILDYYQVYEKIKEFYEGALANGY | not soluble
ARVLVVGDVMLDRYWFGEVDRISPEAPVPVVRVARREDRLGGAANVARNVAALGAQVTLIGVVGADEVGLRIERMAAEEGVRTDLVSDTEHPTTLKMRVLGRQQQLLRVDFEQHPEPAALDGISAAVARQLAQHDIVVLSDYAKGVLDRVESIIAAAVGHSLPVLVDPKGDHYERYRGATLVTPNRAEMREAVGRWKTEDELAERAQRLRLDLDLEALLVTRSEQGMTLFTDAGRDHADAAAHEVYDVSGAGDTVLATLAVMRAVGLSWGDAMRWANRAGGIVVGKLGTSVVTAAEL | not soluble
MSLSRLPVIVGFGGYNAAGRSSFHHGFRRMVIESMDPQARQETLAGLAVMMKLVKAEGGRYLAEDGTPLSPEDIERRYAERIFASTLVRRIEPQYLDPDAVHWHKVLEATPAEGQALTFKASPKQLPEPLPGNWSVTPAADGEVLVSIHERCEFKVDSYRPLTVKSAGQLPTGFEPGELYNSRFHPRGLQMSVVAATDAIRSTGIDWQTIVDNVQPDEIAVFSGSIMSQLDDNGFGGLMQSRLKGHRVSAKQLPLGFNSMPTDFINAYVLGSVGMTGSITGACATFLYNLQKGIDVITSGQARVVIVGNSEAPILPECIEGYSAMGALATEEGLRLIEGRDEVDFRRASRPFGENCGFTLAESSQYVVLMDDELALRLGADIHGAVTDVFINADGFKKSISAPGPGNYLTVAKAVASAVQIVGLDTVRHASFVHAHGSSTPANRVTESEILDRVASAFGIDGWPVTAVKAYVGHSLATASADQLISALGTFKYGILPGIKTIDKVADDVHQQRLSISNRDVRQDKPLEVCFINSKGFGGNNASGVVLSPRIAEKMLRRRHGEAAFAAYVEKREQTRGAARAYDQRALQGDLEIIYNFGQDLIDEQAIEVSAEQVTVPGFSQPLVYKKDARFSDMLDEGHHHHHH | soluble

Source: the DeepSol protein solubility set
